Experimental findings from PMC5756609 are described below.

The target of the test is FcγR (on DIV 7 primary rat hippocampal cells, Erk phosphorylation assay).

For “IgG immune complex (IgG-IC): pre-complexed mouse IgG and rat anti-mouse IgG, 1:1 ratio (w/w)”, the ratio of pErk to Erk (western blot, percentage of vehicle controls) in DIV 7 hippocampal cell cultures exposed for 30 min to IgG-IC at 10 or 100 μg/ml; increased at 10 μg/ml but not at 100 μg/ml amounted to 60.4.
